Reference: patent publication CN113444180A (SHANGHAI SINOBAY BIO TECH CO LTD, dated 2021)

Experiments:
AXL on CHO-AXL细胞 [1] = biological target: T1, AXL on CHO-AXL细胞 (human, UniProt P30530 26-894); test: flow cytometry on CHO-AXL cells, pH6.0 against pH7.4
T1 construct: whole, on cells; the cell line itself is only called CHO-AXL
T1 sequence (looked up): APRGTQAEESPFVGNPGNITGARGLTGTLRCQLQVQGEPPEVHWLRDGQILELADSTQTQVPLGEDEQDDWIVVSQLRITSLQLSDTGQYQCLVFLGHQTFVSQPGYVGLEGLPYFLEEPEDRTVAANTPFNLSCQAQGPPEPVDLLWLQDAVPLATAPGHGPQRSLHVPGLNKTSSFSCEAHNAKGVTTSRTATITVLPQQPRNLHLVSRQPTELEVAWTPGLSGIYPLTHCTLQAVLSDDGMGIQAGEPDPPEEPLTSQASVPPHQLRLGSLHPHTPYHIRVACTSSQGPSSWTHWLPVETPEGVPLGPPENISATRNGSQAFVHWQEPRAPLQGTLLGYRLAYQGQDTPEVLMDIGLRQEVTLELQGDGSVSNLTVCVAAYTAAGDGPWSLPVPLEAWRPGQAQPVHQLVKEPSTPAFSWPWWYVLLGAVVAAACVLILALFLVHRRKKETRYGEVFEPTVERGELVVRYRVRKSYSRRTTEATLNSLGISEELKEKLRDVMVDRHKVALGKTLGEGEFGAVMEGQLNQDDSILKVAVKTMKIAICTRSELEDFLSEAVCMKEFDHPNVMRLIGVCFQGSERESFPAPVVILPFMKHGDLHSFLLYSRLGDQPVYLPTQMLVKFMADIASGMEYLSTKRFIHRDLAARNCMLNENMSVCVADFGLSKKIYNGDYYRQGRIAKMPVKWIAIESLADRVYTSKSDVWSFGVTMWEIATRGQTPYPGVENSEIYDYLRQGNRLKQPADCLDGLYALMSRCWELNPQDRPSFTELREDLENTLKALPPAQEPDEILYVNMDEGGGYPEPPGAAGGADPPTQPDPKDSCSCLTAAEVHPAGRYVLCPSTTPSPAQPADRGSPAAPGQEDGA

AXL on CHO-AXL细胞 [2] = biological target: T1, AXL on CHO-AXL细胞; test: flow cytometry on CHO-AXL cells, acidic condition pH6.0, reference CCT301-38

Binder	平均荧光强度 (MFI), acidic condition over neutral condition (AXL on CHO-AXL细胞 [1])	平均荧光强度 (MFI), fold over positive control CCT301-38 (AXL on CHO-AXL细胞 [2])
Hu001-5抗体 (full-length human IgG1 kappa) (antibody, V domains shown) VH: QVQLLESGGGVVQPGRSLRLSCAASGFTFSSYGMHWVRQAPGKGLEWVAVISYDGSNKYYADSVKGRFTISRDNSKNTLYLQMNSLRAEDTAVYYCAKDQVLAPVGGGLFDYWGQGTLVTVSA VL: DIQLTQSPSSLSASVGDRVTITCRASQSISTYLNWYQQKPGKAPESLIFAASSLASGVPSRFSGSGSGTDFTLTISSLQPEDFATYYCQQSYSTPRTFGPGTKVEIK	~1.5 倍 (fold)	~4 倍 (fold)
Hu001-11抗体 (full-length human IgG1 kappa) (antibody, V domains shown) VH: QVQLLESGGGVVQPGRSLRLSCAASGFTFSSYGMHWVRQAPGKGLEWVAVISYDGSNKYYADSVKGRFTISRDNSKNTLYLQMNSLRAEDTAVYYCAKYGSSGPYWYFDLWGQGTLVTVSA VL: not shown	~1.5 倍 (fold)	~4 倍 (fold)
